Reference: patent US20060115476A1 (ADIENNE, published 2006)

B1: scFv TS-A12/22 (scFv, not shown: small tags and cut ends)
scFv: DIRMTQSPDSLAVSLGERATINCKSSQSVLYSSNNKNYLAWYQQKPGQPPKLLIYWASTRESGVPDRFSGSGSGTDFTLTISSLQAEDVAVYYCQQYYSTPQLTFGGRTKVDIKSGGSTITSYNVYYTKLSSSGTQVQLQQSEGGVVQPGRSLRLSCAASGFTFSSYGMNWVRQAPGKGLEWVSYISSSSSTIYYADSVKGRFTISRDNSKNTLYLQMNSLRAEDTAVYYCARGPGMDVWGQGTTVTVSS
notes: Obtained from TS-A12 by VL chain shuffling; also called TS-A12/22 antibody
B2: unrelated peptide CS5, derived from fibronectin (GEEIQIGHIPREDVDYHLYP) (peptide)
peptide: GEEIQIGHIPREDVDYHLYP

Assays:
[1] = biological target: B2; experiment: competitive ELISA: scFv pre-incubated with the peptide, binding to C5 on solid phase
From the text: (§1) This peptide corresponds to region 727-744 of the mature protein and comprises the cleavage site of C5 convertase (indicated by the arrow) between glycine 733 and arginine 734 according to SwissProt numbering for human C5 (SEQ ID P01031). The peptide was used in a competitive ELISA assay on the C5 protein on solid phase. […] (SEQ ID No. 16 of sequence listing) corresponding to a fibronectin derived peptide termed CS5.

[2] = biological target: T1, C5 component of the complement system (purified C5) (human, UniProt P01031 19-673; P01031 678-1676); experiment: SPR, BIACORE 2000, C5 immobilised on the chip
T1 construct: domain: beta chain;domain: alpha chain; In haemolytic assays it was purified C5 or the C5 of human serum; also called factor C5; C5 antigen
T1 sequence (P01031 678-1676 limits assumed, one chain of several): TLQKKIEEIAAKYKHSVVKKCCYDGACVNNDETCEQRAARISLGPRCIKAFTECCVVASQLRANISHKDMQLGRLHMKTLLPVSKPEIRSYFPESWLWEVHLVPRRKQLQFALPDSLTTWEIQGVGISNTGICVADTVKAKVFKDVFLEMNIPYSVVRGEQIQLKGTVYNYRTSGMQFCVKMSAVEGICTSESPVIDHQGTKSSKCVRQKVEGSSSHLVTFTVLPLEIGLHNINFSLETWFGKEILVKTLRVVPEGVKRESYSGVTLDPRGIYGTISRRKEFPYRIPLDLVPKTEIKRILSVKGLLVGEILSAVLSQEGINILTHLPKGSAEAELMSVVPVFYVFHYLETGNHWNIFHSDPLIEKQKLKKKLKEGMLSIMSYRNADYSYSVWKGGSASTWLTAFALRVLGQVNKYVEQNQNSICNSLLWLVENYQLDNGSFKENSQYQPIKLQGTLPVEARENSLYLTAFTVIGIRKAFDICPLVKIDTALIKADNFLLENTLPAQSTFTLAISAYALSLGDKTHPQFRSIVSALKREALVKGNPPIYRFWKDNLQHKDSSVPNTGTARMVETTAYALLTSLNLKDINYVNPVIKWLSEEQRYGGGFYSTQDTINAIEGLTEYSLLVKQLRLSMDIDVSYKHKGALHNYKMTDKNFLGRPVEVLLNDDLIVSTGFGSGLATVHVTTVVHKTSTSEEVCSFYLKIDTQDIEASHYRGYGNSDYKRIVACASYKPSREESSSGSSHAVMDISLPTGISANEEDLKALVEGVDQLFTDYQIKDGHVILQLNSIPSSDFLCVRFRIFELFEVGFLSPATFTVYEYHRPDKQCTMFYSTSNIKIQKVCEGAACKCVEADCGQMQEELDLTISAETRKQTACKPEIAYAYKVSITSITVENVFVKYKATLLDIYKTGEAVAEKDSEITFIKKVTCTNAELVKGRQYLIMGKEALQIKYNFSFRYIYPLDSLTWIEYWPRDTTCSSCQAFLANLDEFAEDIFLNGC
Protocol: The microchip (CM5, Biacore) was prepared by direct conjugation of the C5 antigen with amines (20 μg/ml in 10 mM Sodium Acetate pH 4.5). The final level of immobilisation turned out to be approximately 1000 RU (Resonance Units). Association and dissociation of antibody molecules from the bio-chip were measured using an optical detection system (Surface Plasmon Resonance).
The analysis was carried out at 25° C., at a flow of 15 μl/min, using 4 different scFv concentrations in the range comprised between 100-300 nM, in PBS, 0.005% P20 (Biacore). The binding curves were interpolated 1:1 according to the model of Langmuir, using the dedicated software termed BIAevaluation (version 3.5) with correction for the mass transfer.

C5 beta chain = biological target: T2, C5 beta chain (human, UniProt P01031 19-673, reduced with DTT and treated with iodoacetamide (alkylated cysteines)); experiment: Western blot
T2 construct: domain: beta chain; Separated from purified C5 by reduction, alkylation and gel filtration on Superose 12; also called beta sub-unit of C5; C5 beta subunit
T2 sequence (looked up): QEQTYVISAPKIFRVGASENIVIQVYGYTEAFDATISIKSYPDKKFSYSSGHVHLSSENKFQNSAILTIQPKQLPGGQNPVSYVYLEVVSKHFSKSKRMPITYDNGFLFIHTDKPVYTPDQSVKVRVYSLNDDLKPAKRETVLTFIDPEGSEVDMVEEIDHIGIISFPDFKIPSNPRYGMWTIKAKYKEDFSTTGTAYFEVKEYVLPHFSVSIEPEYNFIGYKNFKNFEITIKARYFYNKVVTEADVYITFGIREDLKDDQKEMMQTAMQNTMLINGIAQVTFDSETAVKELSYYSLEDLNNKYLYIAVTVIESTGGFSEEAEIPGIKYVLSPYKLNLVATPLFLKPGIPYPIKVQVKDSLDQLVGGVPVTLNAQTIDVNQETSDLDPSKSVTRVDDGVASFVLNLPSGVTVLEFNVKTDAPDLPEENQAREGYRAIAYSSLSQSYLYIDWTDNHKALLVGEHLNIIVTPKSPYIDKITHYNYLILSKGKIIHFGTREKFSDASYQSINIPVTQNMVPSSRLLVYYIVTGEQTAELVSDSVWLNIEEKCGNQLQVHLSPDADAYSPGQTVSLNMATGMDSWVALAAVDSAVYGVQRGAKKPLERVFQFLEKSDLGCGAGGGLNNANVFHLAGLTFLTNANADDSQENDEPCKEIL
Protocol: Briefly the two subunits were electrophoresed in separate wells and transferred on nitrocellulose membranes. A solution containing Tris 50 mM pH 7.6, 0.5 M NaCl and 4% skimmed powder milk was used to block non-specific sites for 1 hour at 37° C. […] The enzymatic reaction was developed with blue tetrazolium and 5-bromo-4-chlorine-3-indolil phosphate (Sigma-Aldrich, 0.30 mg/ml) diluted in 0.1 M Tris-HCl pH 9.5 containing 0.1 M NaCl and 5 mM MgCl₂.

scFv TS-A12/22 = biological target: B1; experiment: competitive ELISA: scFv TSA-12/22 (1 µg/ml) pre-incubated with the peptide, then binding to C5 on solid phase, given as % of the saline control
From the text: as §1

Row | Binder | binding result [1] | Kd [2] [µM] | binding result (C5 beta chain) | binding result (scFv TS-A12/22)
1 | B1 | no binding (tested: 800 ng) | 0.018 | no binding (tested: 100 ng of beta chain) | –
2 | B2 | – | – | – | no binding (tested: 800 ng)
